Data published in IntAct's records for PubMed 31515488.

B1: Protein FAM9B (Homo sapiens), Q8IZU0 (parent)
chain: MAAWGKKHAGKDPVRDECEERNRFTETREEDVTDEHGEREPFAETDEHTGANTKKPEDTAEDLTAKRKRMKMDKTCSKTKNKSKHALRKKQLKRQKRDYIHSLKLLNVLEEYITDEQKEEEEEEGEEEELIRIFQEQQKKWQQYRSVRRERLKEMKLLRDQFVKALEDFEDLCDRVFSDEDSELDN
partner: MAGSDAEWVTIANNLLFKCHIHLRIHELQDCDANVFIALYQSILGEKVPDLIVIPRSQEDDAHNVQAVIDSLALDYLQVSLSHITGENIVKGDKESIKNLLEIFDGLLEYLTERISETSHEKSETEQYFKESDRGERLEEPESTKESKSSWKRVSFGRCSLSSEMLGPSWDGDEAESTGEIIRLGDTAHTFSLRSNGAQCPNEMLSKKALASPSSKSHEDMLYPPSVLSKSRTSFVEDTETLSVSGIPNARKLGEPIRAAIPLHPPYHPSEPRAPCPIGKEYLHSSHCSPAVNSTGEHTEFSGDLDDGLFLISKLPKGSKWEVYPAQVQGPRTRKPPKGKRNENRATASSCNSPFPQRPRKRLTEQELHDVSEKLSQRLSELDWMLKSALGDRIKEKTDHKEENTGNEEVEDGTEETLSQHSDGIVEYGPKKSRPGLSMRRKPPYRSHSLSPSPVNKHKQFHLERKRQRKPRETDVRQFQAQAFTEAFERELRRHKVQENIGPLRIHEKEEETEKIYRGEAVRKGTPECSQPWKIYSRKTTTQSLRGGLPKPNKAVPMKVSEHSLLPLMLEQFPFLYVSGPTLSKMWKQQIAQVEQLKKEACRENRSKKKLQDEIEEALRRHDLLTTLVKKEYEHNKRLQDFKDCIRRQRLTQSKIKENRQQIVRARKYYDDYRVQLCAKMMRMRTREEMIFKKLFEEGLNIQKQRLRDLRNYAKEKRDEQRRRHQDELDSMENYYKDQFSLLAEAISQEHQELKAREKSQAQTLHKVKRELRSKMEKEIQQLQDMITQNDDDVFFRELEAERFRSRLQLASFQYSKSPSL
B2: Protein FAM168A (Homo sapiens), Q92567 (parent)
chain: MNPVYSPVQPGAPYGNPKNMAYTGYPTAYPAAAPAYNPSLYPTNSPSYAPEFQFLHSAYATLLMKQAWPQNSSSCGTEGTFHLPVDTGTENRTYQASSAAFRYTAGTPYKVPPTQSNTAPPPYSPSPNPYQTAMYPIRSAYPQQNLYAQGAYYTQPVYAAQPHVIHHTTVVQPNSIPSAIYPAPVAAPRTNGVAMGMVAGTTMAMSAGTLLTTPQHTAIGAHPVSMPTYRAQGTPAYSYVPPHW
partner: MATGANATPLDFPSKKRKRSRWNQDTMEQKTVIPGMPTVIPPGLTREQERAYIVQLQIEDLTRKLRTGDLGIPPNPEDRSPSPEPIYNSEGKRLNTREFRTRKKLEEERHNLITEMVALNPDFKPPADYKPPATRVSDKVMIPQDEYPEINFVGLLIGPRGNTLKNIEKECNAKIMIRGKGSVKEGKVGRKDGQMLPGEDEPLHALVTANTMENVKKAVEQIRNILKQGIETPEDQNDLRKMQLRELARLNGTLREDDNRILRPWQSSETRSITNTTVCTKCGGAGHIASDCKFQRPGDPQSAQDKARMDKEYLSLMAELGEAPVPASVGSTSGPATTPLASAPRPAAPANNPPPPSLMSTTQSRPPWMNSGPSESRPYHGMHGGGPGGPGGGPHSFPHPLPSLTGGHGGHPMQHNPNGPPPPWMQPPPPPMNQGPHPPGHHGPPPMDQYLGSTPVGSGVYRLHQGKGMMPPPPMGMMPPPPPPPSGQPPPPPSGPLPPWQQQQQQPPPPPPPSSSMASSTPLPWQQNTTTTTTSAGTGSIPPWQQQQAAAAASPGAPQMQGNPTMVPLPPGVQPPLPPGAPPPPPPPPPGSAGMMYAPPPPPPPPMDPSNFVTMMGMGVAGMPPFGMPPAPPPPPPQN
B3: Protein mab-21-like 3 (Homo sapiens), Q8N8X9 (parent)
chain: MKYLTVGDLEDCLLNKVDLRRQQISQAVEEVQKVVHHLTTNISNQDIRFQAVPYSDTYNENIKVLAPSQFLVTVPIKGLAGYREAREQHWRYYTLQGTRLPCPLRDPEGLQQWLEVEQFMKSLWQWHETDVNIDGDIVPAKVLLVFRKLVENAVRTCHLSGKVSLLGNRSAVWVAVETSAYQVELELVPAVEIPTTWSKKARWPRCLQRWPSQERVECIKSFGFNLLACSNYHWQLSFLRAEQVLLEQLDEDGGCRRKCFQVMRHLKEDIWCPGNRPVITSHHLQTVLFWTCEKYPHFKDWQVFSKAFLRLVRKLHKCVSQHFLKHYFVRNSNLFQCTNPTELDTVAQKLATFLKNPQIGPP
partner: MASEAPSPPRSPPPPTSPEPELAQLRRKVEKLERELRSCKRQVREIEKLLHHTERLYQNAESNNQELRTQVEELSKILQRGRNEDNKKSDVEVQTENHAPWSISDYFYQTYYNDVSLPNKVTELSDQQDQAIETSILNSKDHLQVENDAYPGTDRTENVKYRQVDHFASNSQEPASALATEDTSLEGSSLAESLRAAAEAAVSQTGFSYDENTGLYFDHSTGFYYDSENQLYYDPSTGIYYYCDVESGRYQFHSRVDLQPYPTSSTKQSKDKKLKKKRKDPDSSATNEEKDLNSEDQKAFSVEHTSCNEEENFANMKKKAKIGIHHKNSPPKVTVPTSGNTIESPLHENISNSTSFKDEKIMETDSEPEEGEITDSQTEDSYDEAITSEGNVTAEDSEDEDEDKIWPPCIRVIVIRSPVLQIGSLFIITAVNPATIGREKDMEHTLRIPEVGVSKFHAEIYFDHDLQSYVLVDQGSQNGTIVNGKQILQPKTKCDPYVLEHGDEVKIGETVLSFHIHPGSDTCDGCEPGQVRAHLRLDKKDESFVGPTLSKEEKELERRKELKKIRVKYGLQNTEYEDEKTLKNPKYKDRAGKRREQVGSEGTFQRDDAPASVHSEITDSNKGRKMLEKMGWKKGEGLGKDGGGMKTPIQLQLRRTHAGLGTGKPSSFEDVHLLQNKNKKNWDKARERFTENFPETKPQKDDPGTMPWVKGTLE
B4: Protein FAM9B (Homo sapiens), Q8IZU0 (parent)
chain: B1 chain
partner: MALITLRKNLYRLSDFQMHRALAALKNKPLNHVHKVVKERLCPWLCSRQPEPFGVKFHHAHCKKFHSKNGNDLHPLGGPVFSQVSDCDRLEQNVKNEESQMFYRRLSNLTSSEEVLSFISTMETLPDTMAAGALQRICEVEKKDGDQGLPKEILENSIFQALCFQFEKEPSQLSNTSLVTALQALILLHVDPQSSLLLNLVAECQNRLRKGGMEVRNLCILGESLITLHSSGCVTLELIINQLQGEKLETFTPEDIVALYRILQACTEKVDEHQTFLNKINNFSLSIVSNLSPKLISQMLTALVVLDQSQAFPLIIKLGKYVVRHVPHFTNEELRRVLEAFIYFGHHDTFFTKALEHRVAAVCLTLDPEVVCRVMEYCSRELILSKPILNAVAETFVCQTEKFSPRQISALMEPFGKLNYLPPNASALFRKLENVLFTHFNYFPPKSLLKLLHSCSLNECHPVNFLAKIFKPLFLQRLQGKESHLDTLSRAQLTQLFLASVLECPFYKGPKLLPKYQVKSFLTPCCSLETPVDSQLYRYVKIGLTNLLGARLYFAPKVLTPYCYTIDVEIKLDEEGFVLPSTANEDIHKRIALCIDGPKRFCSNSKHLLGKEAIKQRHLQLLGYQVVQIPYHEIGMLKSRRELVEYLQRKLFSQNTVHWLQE
B5: Ligand of Numb protein X 2 (Homo sapiens), Q8N448 (parent)
chain: MGTTSDEMVSVEQTSSSSLNPLCFECGQQHWTRENHLYNYQNEVDDDLVCHICLQPLLQPLDTPCGHTFCYKCLRNFLQEKDFCPLDRKRLHFKLCKKSSILVHKLLDKLLVLCPFSSVCKDVMQRCDLEAHLKNRCPGASHRRVALERRKTSRTQAEIENENGPTLLDPAGTLSPEADCLGTGAVPVERHLTSASLSTWSEEPGLDNPAFEESAGADTTQQPLSLPEGEITTIEIHRSNPYIQLGISIVGGNETPLINIVIQEVYRDGVIARDGRLLAGDQILQVNNYNISNVSHNYARAVLSQPCNTLHLTVLRERRFGNRAHNHSDSNSPREEIFQVALHKRDSGEQLGIKLVRRTDEPGVFILDLLEGGLAAQDGRLSSNDRVLAINGHDLKYGTPELAAQIIQASGERVNLTIARPGKPQPGNTIREAGNHSSSSQHHTPPPYYSRPSSHKDLTQCVTCQEKHITVKKEPHESLGMTVAGGRGSKSGELPIFVTSVPPHGCLARDGRIKRGDVLLNINGIDLTNLSHSEAVAMLKASAASPAVALKALEVQIVEEATQNAEEQPSTFSENEYDASWSPSWVMWLGLPSTLHSCHDIVLRRSYLGSWGFSIVGGYEENHTNQPFFIKTIVLGTPAYYDGRLKCGDMIVAVNGLSTVGMSHSALVPMLKEQRNKVTLTVICWPGSLV
partner: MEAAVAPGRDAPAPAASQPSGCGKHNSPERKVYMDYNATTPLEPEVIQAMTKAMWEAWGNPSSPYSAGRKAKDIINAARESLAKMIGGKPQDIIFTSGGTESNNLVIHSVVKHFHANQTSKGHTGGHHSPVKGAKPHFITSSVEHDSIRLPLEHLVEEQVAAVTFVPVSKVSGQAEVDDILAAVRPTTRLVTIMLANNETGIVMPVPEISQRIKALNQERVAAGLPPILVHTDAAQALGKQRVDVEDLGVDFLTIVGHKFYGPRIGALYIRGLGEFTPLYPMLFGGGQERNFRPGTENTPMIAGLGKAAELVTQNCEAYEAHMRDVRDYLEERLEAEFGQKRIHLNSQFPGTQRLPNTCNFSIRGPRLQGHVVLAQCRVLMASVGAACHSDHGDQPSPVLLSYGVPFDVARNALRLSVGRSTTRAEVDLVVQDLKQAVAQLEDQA
B6: E3 ubiquitin-protein ligase TRIM9 (Homo sapiens), Q9C026-5 (parent)
chain: MEEMEEELKCPVCGSFYREPIILPCSHNLCQACARNILVQTPESESPQSHRAAGSGVSDYDYLDLDKMSLYSEADSGYGSYGGFASAPTTPCQKSPNGVRVFPPAMPPPATHLSPALAPVPRNSCITCPQCHRSLILDDRGLRGFPKNRVLEGVIDRYQQSKAAALKCQLCEKAPKEATVMCEQCDVFYCDPCRLRCHPPRGPLAKHRLVPPAQGRVSRRLSPRKVSTCTDHELENHSMYCVQCKMPVCYQCLEEGKHSSHEVKALGAMWKLHKSQLSQALNGLSDRAKEAKEFLVQLRNMVQQIQENSVEFEACLVAQCDALIDALNRRKAQLLARVNKEHEHKLKVVRDQISHCTVKLRQTTGLMEYCLEVIKENDPSGFLQISDALIRRVHLTEDQWGKGTLTPRMTTDFDLSLDNSPLLQSIHQLDFVQVKASSPVPATPILQLEECCTHNNSATLSWKQPPLSTVPADGYILELDDGNGGQFREVYVGKETMCTVDGLHFNSTYNARVKAFNKTGVSPYSKTLVLQTSEGKALQQYPSERELRGI

Variants of: B1
Conditions: with cep95_human CEP95, Q96GE4

Row | effect of a mutation on the interaction | Variant
1 | with no effect | R23H

Variants of: B2
Conditions: with sf01_human SF1, Q15637

Row | effect of a mutation on the interaction | Variant
2 | disrupting interaction strength | P122R

Variants of: B3
Conditions: with aggf1_human AGGF1, Q8N302

Row | effect of a mutation on the interaction | Variant
3 | with no effect | T338A

Variants of: B4
Conditions: with fakd3_human FASTKD3, Q14CZ7

Row | effect of a mutation on the interaction | Variant
4 | with no effect | R23H

Variants of: B5
Conditions: with scly_human SCLY

Row | effect of a mutation on the interaction | Variant
5 | with no effect | S198P

Variants of: B6
Conditions: with fbw1a_human BTRC

Row | effect of a mutation on the interaction | Variant
6 | with no effect | L277F
